# Laboratory results as given in the RNAGym collection of RNA variant scans (doi:10.7554/elife.90254).
# B1: LINE1-full (parent)
# chain: UACGUAGGUGGUUUUCCCCUGAUAGUGCUAAGGGGGCCUGGAAGUUUGGACUGGGCAGAGCUCAACACAGCGUGGCAAAGUGGCUGUGGCUAGACUGCCUCUCUGGAUUCCUCGUCACUCAGCAGGGCAUCUCUGAGAGAAAUGCC
# Variants of: B1
# Assay: self-cleavage, relative activity (ratio to wild type); higher = more cleavage; in vitro, sequencing; the parent is a self-cleaving ribozyme
row,Variant,self-cleavage
1,U73A G86A,0.04
2,U73A G88A,0.07
3,U73A G122A,1.98
4,U73A G126A,0.57
5,U73A G135A,1.66
6,U73A G139A,1.47
7,U73A U81C,1.09
8,U73A U81G,1.85
9,U73A U85A,0.05
10,U73A U85C,0.1
11,U73A U87C,0.06
12,U73A U91A,0.72
13,U73A U102C,0.97
14,U73A U104A,1.09
15,U73A U104C,1.53
16,U73A U108A,1.42
17,U73A U109A,0.92
18,U73A U112A,2.03
19,U73A U112C,1.56
20,U73A U112G,1.53
21,U73A U115C,1.9
22,U73A U119A,1.59
23,U73A U119C,1.86
24,U73A U130A,1.83

row,Variant,self-cleavage
1,U73A U130C,1.82
2,U73A U132G,2.06
3,U73C,1.72
4,U73C A77U,1.31
5,U73C A79G,1.79
6,U73C A94G,0.37
7,U73C A107U,2.22
8,U73C A121U,1.89
9,U73C A124G,0.64
10,U73C A124U,1.5
11,U73C A129C,1.36
12,U73C A129G,1.98
13,U73C A136U,1.76
14,U73C A140G,1.63
15,U73C A140U,1.85
16,U73C A141G,1.62
17,U73C A141U,1.53
18,U73C A142G,1.82
19,U73C A142U,1.24
20,U73C C76U,2.52
21,U73C C90A,0.06
22,U73C C98A,0.21
23,U73C C101U,1.01
24,U73C C103U,1.61

row,Variant,self-cleavage
1,U73C C110U,2.11
2,U73C C111U,2.14
3,U73C C113A,1.4
4,U73C C116U,1.39
5,U73C C131A,1.55
6,U73C C131G,1.73
7,U73C C131U,1.73
8,U73C C133U,1.97
9,U73C C145U,1.53
10,U73C G74A,2.38
11,U73C G75U,0.78
12,U73C G86A,0.14
13,U73C G88U,0.13
14,U73C G97A,0.41
15,U73C G105A,2.03
16,U73C G105U,1.32
17,U73C G106A,1.7
18,U73C G114A,1.54
19,U73C G125U,2.15
20,U73C G127A,1.7
21,U73C G144A,1.77
22,U73C U81C,1.47
23,U73C U85C,0.08
24,U73C U85G,0.21

row,Variant,self-cleavage
1,U73C U87A,0.31
2,U73C U87C,0.2
3,U73C U100A,1.81
4,U73C U100C,1.99
5,U73C U102C,1.11
6,U73C U104A,1.93
7,U73C U104C,0.94
8,U73C U104G,1.71
9,U73C U109C,0.31
10,U73C U112G,2.63
11,U73C U115C,1.63
12,U73C U134A,1.54
13,U73C U134C,1.87
14,U73G,1.29
15,U73G A77U,1.14
16,U73G A92G,0.36
17,U73G A107U,1.59
18,U73G A136G,1.84
19,U73G A140G,1.21
20,U73G A141G,1.81
21,U73G A142U,0.61
22,U73G U81G,1.05
23,U73G U96C,0
24,U73G U102A,1.22

row,Variant,self-cleavage
1,U73G U104C,2
2,U73G U108A,1.33
3,U73G U109C,1.07
4,U73G U112G,0
5,U73G U115A,1.12
6,U73G U119C,1.57
7,U73G U134C,1.57
8,U73G U143C,2.02
9,G74A,0.95
10,G74A A77G,1.35
11,G74A A94G,0.15
12,G74A A121U,1.07
13,G74A A124U,1.22
14,G74A A136U,0.91
15,G74A A141G,0.97
16,G74A C113A,0.85
17,G74A G89A,0.03
18,G74A G144A,1.09
19,G74A U81C,0.78
20,G74A U85C,0.06
21,G74A U87C,0.08
22,G74A U100C,1.62
23,G74A U102C,1.08
24,G74A U104A,0.75

row,Variant,self-cleavage
1,G74A U109C,0.7
2,G74A U112C,0.66
3,G74A U115C,1.46
4,G74A U119A,0.84
5,G74A U130C,0.87
6,G74A U134C,1.1
7,G74A U143A,1.72
8,G74A U143G,2.27
9,G74C,1.6
10,G74C U132A,1.46
11,G74U,1.4
12,G74U A94G,0.15
13,G74U A117U,1.79
14,G74U A141G,1.68
15,G74U U102A,1.79
16,G74U U112C,1.64
17,G74U U143C,1.48
18,G75A A79G,0.83
19,G75A A94G,0.25
20,G75A A94U,0.35
21,G75A A107G,1.66
22,G75A A117C,1.31
23,G75A A129G,1.61
24,G75A A129U,1.13

row,Variant,self-cleavage
1,G75A A141G,1.16
2,G75A C123U,0.69
3,G75A G82U,1.07
4,G75A G105U,0.67
5,G75A G135A,1.18
6,G75A U81C,0.67
7,G75A U87G,0.18
8,G75A U100A,0.42
9,G75A U100C,1.5
10,G75A U112A,0.91
11,G75A U119C,1.5
12,G75A U143A,1.53
13,G75C A138G,1.01
14,G75C A142U,0.66
15,G75C U109C,0.62
16,G75C U119A,0.95
17,G75C U134A,0.49
18,G75U A78U,1.49
19,G75U U109C,0.7
20,G75U U115A,1.06
21,C76A A124G,0.92
22,C76A U81C,1.46
23,C76A U81G,0.33
